B1: Nb8197 (VHH)
VHH: QVQLQESGGGLVQPGGSLRLSCAASGFTFSSYAMSWVRQAPGKGLEWVSSITSAFGRTSYVSSVKGRFTISRDNAKNTLYLQMNSLKPEDTAVYYCAQGASWPYRYRGQGTQVTVSS
B2: Nb8208 (VHH)
VHH: QVQLQESGGGLVQPGGSLRLSCAASGRTFSMYAMAWFRQAPGKQREFVGTISRSGDYALHADAVKGRFTISRDNAKNTVYLQMNSLKLEDTAVYYCAAGAYHSKDKTLYDYWGQGTQVTVSS
notes: source: E. coli WK6, periplasm, purified (Ni-NTA)
B3: Nb8194 (VHH)
VHH: QVQLQESGGGLVQPGGSLRLSCAASGFTFSNYYMSWVRQAPGEGREWVSSINRDGSNTYYADSVKGRFTIARDNVKNTLYLLMDSLKSDDTAVYYCTKGSNWPYDNWGQGTQVTVSS
notes: as for B2
B4: Nb8193 (VHH)
VHH: QVQLQESGGGLVQPGGSLRLSCAASGFTFKMYAMSWVRQAPGKGLEWVSSINSAGGSTSYVDSVKGRFTISRDNAKNTLYLQMNSLKPDDTAVYYCVQGRNWPYDYRGQGTQVTVSS
notes: as for B2
B5: Nb8205 (VHH)
chain: QVQLQESGGGMVQPGGSLRLSCLASGFTFSNYAMTWVRQAPGKGPEWVSMVSNNGADTTYTDSVKGRFTISRDNAKNTLYLRMNNVKPEDSAVYYCAKRRYGGIWTGQPTDYDYLGQGTVTVSS
B6: Nb8206 (VHH)
VHH: QVQLQESGGGLVQPGGSLRLSCTASGGIFGISAMGWYRQAPGKERELVARITRSGSTNFADSVKDRFTISRDATENTVVLQMNSLKAEDTAVYYCNGQFWEVDNGNIDLWGQGTQVTVSS
notes: as for B2
B7: Nb8207 (VHH)
VHH: QVQLQESGGGLVQAGASLRLSCTASGRTSSTYPMGWFRQGPGKEREFVAAISWAGSSTYYGDFVKGRFTISRDNAKNTVYLQMNSLKPEDTAVYYCARAARPYAYGLDYSTEASYDYWGQGTQVTVSS
notes: as for B2
B8: Nb8191 (VHH)
VHH: QVQLQESGGGLVQPGGSLRLSCTASESVASINIVGWYRQISGKERELVARISSGGTITDYSDSVKGRFTITRDNTKNTVYLQMNSLKRGDTAVYYCNAEYQYGSDWFHIWGQGTQVTVSS
notes: as for B2
B9: Nb8190 (VHH)
VHH: QVQLQESGGGLVQAGGSLRLSCAASGRSLSDYTMGWFRQAPGKEREFVTAITSDGVYANYADSVKGRFTISRDNAKNTAYLQMNSLKPEDTAVYYCAGKTRRSMLMTTGYDYWGQGTQVTVSS
notes: as for B2
B10: Nb8204 (VHH)
VHH: QVQLQESGGGLVQPRGSLRLSCAASGSIAIIYTMGWYRQAPLKERELVATVTYGGNTNYADPVKGRFTISRDNNKNTEYLQMSSLQPEDTAVYYCYMRVRSTAWDTDDYWGQGTQVTVSS
notes: as for B2
B11: Nb8192 (VHH)
VHH: QVQLQESGGGLVQAGASLRLSCAASGRTFMGWFRQAPGQEREFVAAIDAFGINTYYADSAKGRFTISRDSAKNTVYLQMNSLKPEDTAVYYCAATLRGTQPGAVMQWRPDYWGQGTQVTVSS
notes: as for B2
B12: Nb8196 (VHH)
VHH: QVQLQESGGGLVQAGDSLRLSCTTSGSSLSRYGVGWFRQAPGEEREFGASISWNGATYYADSVKGRFTISRDNAKNTVYLQMNSLKAEDTAVYYCAARSDGYLTPYLSPVYWGQGTQVTVSS
notes: as for B2
B13: Nb8203 (VHH)
VHH: QVQLQESGGGLVQAGGSLRLSCAAPGRILTLSRYVMGWFRQAPGKEREFVAAISPGTTDTDYADSVKGRFTISRDNAKNTVYLEMSSLKPEDTAVYVCAAGAASSGTVYRVYGLYNYRGQGTQVTVSS
B14: Nb8209 (VHH)
VHH: QVQLQESGGGLVQPGGSLRLSCAASGNIRSINTMSWYRQAPGKERELVASDSTGGSTGGSTVYAASVKGRFTISRDNAKNTVYLQMNMLKPEDTAVYYCYVYGMSRFGSTISTLFGQGTQVTVSS
notes: as for B2
B15: Nb8199 (VHH)
VHH: QVQLQESGGGLVQAGGSLRLSCAASGRTFSSYAMGWFRQAPGKEREFVGAIDLSGLYKHYGDSVKGRFTISRDNAKNTVYLQMSSLKPEDTAVYYCAAAGIYYAGSYSPLLYDYWGQGTQVTVSS
notes: as for B2
B16: Nb8200 (VHH)
VHH: QVQLQESGGGLVQAGDSLRLSCAASGRTFSGYIMAWFRQTPGKERELVARLGPSSSIQYYRDSVKGRFTLSRDNAKNTLYLQMNSLKPEDTAVYYCAFTLKWSSDYRSHNAYDYWGQGTQVTVSS
notes: as for B2
B17: Nb8198 (VHH)
VHH: QVQLQESGGGLVQTGDSLRLSCAGAERSFNSYTMGWFRQAPGKEREFVAAIAFSGGFTYYAEAVKGRFTISRDSGKNTVYLQMNSLKPEDTAVYYCAARFYGGGYYYQQREYSFWGQGTQVTVSS
notes: as for B2
B18: Nb8202 (VHH)
VHH: QVQLQESGGGLVQAGESLRLSCAASGGTFIYYGMGWFRQAPGKEREFVASISQTGGDIYAMDFVKGRFTISRDNSKNTLYLQMNSLKPEDTAVYYCAAATSPYASRKLYEYKYWGQGTQVTVSS
notes: as for B2
B19: Nb8210 (VHH)
VHH: QVQLQESGGGLVQAGESLRLSCAASGGTLIYYGMGWFRQAPGKEREFVASISQAGGDIYAMDFVKGRFTISRDNSKNTLYLQLNTLKPEDTAVYYCAAATSPYASRKLYDYKYWGQGTQVTVSS
notes: as for B2
B20: Nb8201 (VHH)
VHH: QVQLQESGGGLVQPGGSLRLSCAASGSDFSLYAMGWYRQVPGKERELVATITIGGTTNFADSARGRFTISRGNAKNTVYLQMNNLKPEDTAVYYCWSRGSYGRYLETWGQGTQVTVSS
notes: as for B2
B21: Nb8189 (VHH)
VHH: QVQLQESGGGLVQPGGSLRLSCAASGSDFSLYAMGWYRQVPGKERELVATITSGGTTNFADSARGRFTISRGNAKNTVYLQMNNLKPEDTAVYYCWSRGSYGRYLETWGQGTQVTVSS
notes: as for B2
B22: polymerase basic 2 (PB2) subunit of influenza A/Brevig Mission/1/1918 (H1N1) virus (natural protein)
chain: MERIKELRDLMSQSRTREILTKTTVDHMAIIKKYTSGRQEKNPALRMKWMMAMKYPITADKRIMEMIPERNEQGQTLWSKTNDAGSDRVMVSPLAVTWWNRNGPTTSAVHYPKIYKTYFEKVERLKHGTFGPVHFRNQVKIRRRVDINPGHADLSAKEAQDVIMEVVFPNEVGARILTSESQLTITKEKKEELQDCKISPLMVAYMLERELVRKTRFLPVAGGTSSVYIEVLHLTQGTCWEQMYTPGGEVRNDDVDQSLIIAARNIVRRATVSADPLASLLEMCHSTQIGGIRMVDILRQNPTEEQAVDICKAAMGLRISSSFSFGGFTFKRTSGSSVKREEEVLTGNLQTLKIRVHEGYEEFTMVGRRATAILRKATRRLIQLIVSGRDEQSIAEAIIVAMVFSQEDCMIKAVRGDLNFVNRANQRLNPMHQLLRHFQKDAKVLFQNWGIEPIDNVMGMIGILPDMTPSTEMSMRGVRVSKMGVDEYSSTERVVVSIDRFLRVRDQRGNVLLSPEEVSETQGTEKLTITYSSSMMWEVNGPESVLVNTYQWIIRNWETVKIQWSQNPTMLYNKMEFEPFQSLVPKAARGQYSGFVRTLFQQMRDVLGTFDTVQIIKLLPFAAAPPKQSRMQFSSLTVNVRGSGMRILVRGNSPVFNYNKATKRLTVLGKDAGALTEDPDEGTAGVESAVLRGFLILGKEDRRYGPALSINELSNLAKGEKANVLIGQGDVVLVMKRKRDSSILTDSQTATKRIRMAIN
notes: the PB2 chain of m1

In one assay the target is T1, PB2 cap-mid-link construct (cap-binding and mid-link domains) from influenza A/duck/Fujian/01/2002 (H5N1) (Influenza A virus …).
Experiment: not given
Conditions: not given
For B1, the binding result is reported as “binds”.

For another assay, the target named is T1, PB2 cap-mid-link construct (cap-binding …). The assay is described as follows: SEC. Particulars: both partners purified.
Regarding B2, the binding result is “binds”.

In the case of B3, the binding result is reported as “binds”.

Turning to B4, the binding result is “binds”.

In the next assay the target is T2, RNA polymerase of influenza A/Brevig Mission/1/1918 (H1N1) virus, heterotrimer of PA, PB1 and PB2 (influenza A/Brevig Mission/1/1918 …, UniProt Q3HM39;Q3HM40;Q3HM41).
T2 construct: also called 1918 polymerase; 1918 pandemic influenza virus polymerase; copies: + +
The assay is described as follows: cryo-EM structure. Particulars: both partners purified.
As to B5, the binding result is reported as “binds”.

For the molecule B6, the binding result was “binds”.

Take B7: the binding result was “binds”.

For the molecule B8, the binding result is “binds”.

Turning to B9, the binding result is listed as “binds”.

As to B10, the binding result is “binds”.

Turning to B11, the binding result is given as “binds”.

Turning to B12, the binding result is listed as “binds”.

As to B13, the binding result is “binds”.

Consider B14, for which the binding result is “binds”.

B15: the binding result is reported as “binds”.

As for B16, the binding result was “binds”.

For the molecule B17, the binding result is listed as “binds”.

As for B18, the binding result is “binds”.

For the molecule B19, the binding result is reported as “binds”.

For the molecule B20, the binding result is “binds”.

For B21, the binding result is reported as “binds”.

The next assay has as its target T3, polymerase acidic (PA) subunit of influenza A/Brevig Mission/1/1918 (H1N1) virus (influenza A/Brevig Mission/1/1918 …, UniProt Q3HM39).
T3 construct: the PA chain of m1
The assay is described as follows: cryo-EM structure. As to conditions: both partners purified.
In the case of B22, the binding result is “binds”.

(Values after article PMC8752864 (Nature Communications, 2022).)
